Results taken from article PMC9557913 (Molecular cell, 2022).

T1: MCU, Q8NE86
T1 chain: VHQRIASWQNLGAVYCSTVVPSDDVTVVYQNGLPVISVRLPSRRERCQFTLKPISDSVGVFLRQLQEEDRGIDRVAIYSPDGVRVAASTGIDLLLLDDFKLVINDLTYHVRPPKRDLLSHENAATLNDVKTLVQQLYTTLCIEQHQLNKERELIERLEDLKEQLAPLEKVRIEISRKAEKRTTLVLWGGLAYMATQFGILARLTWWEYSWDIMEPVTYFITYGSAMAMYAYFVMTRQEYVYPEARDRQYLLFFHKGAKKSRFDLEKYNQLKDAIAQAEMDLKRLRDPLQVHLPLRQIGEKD


How the values were obtained:
MCU, Q8NE86 = target: T1, MCU, Q8NE86; test: co-IP; details: remark: other sources report otherwise
SEC = target: the molecule itself; test: SEC

fold co-precipitated with MCU, against MICU1-2D (MCU, Q8NE86) [fold]	Binder	stoichiometry N (SEC)
2	disulfide-connected MICU1-MICU1 homodimer (MICU1-1D), Q9BPX6 34-476 (complex, here or on the partner: intersubunit disulfide through C463) MMVAFLGASAVTASTGLLWKRAHAESPPCVDNLKSDIGDKGKNKDEGDVCNHEKKTADLAPHPEEKKKKRSGFRDRKVMEYENRIRAYSTPDKIFRYFATLKVISEPGEAEVFMTPEDFVRSITPNEKQPEHLGLDQYIIKRFDGKKISQEREKFADEGSIFYTLGECGLISFSDYIFLTTVLSTPQRNFEIAFKMFDLNGDGEVDMEEFEQVQSIIRSQTSMGMRHRDRPTTGNTLKSGLCSALTTYFFGADLKGKLTIKNFLEFQRKLQHDVLKLEFERHDPVDGRITERQFGGMLLAYSGVQSKKLTAMQRQLKKHFKEGKGLTFQEVENFFTFLKNINDVDTALSFYHMAGASLDKVTMQQVARTVAKVELSDHVCDVVFALFDCDGNGELSNKEFVSIMKQRLMRGLEKPKDMGFTRLMQAMWKCAQETAWDFALPKQ	–
–	purified MBP-fused human MICU1 (MICU1-1ND) (natural protein, UniProt Q9BPX6 34-476, looked up) MMVAFLGASAVTASTGLLWKRAHAESPPCVDNLKSDIGDKGKNKDEGDVCNHEKKTADLAPHPEEKKKKRSGFRDRKVMEYENRIRAYSTPDKIFRYFATLKVISEPGEAEVFMTPEDFVRSITPNEKQPEHLGLDQYIIKRFDGKKISQEREKFADEGSIFYTLGECGLISFSDYIFLTTVLSTPQRNFEIAFKMFDLNGDGEVDMEEFEQVQSIIRSQTSMGMRHRDRPTTGNTLKSGLCSALTTYFFGADLKGKLTIKNFLEFQRKLQHDVLKLEFERHDPVDGRITERQFGGMLLAYSGVQSKKLTAMQRQLKKHFKEGKGLTFQEVENFFTFLKNINDVDTALSFYHMAGASLDKVTMQQVARTVAKVELSDHVCDVVFALFDCDGNGELSNKEFVSIMKQRLMRGLEKPKDMGFTRLMQAMWKCAQETAWDFALPKQ	2
–	purified human MICU2 (MICU2-2ND) (natural protein, UniProt Q8IYU8 23-434, looked up) AVSRQAVRSPGPLAAAVAGAALAGAGAAWHHSRVSVAARDGSFTVSAQKNVEHGIIYIGKPSLRKQRFMQFSSLEHEGEYYMTPRDFLFSVMFEQMERKTSVKKLTKKDIEDTLSGIQTAGCGSTFFRDLGDKGLISYTEYLFLLTILTKPHSGFHVAFKMLDTDGNEMIEKREFFKLQKIISKQDDLMTVKTNETGYQEAIVKEPEINTTLQMRFFGKRGQRKLHYKEFRRFMENLQTEIQEMEFLQFSKGLSFMRKEDFAEWLLFFTNTENKDIYWKNVREKLSAGESISLDEFKSFCHFTTHLEDFAIAMQMFSLAHRPVRLAEFKRAVKVATGQELSNNILDTVFKIFDLDGDECLSHEEFLGVLKNRMHRGLWVPQHQSIQEYWKCVKKESIKGVKEVWKQAGKGLF	2
